{"source": "paper PMC5932363", "biological_target": "Proteinase 3 (PR3), purified (UniProt P24158)", "sequence (P24158 28-248)": "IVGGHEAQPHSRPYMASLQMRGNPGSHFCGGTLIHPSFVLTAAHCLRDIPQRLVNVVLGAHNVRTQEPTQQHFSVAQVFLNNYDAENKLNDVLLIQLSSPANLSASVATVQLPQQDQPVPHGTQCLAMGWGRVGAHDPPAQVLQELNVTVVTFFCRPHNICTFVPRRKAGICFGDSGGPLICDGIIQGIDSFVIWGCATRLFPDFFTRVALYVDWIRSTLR", "test": "SPR; BIAcore 3000; PR3 immobilised on a CM5 chip by amine coupling; C1q, gC1q or cC1q as soluble analytes; 50 mM Tris, 150 mM NaCl, 2 mM Ca2+, 0.005% surfactant P20, pH 7.4; flow 20 µl/min; global fit to a 1:1 Langmuir model; apparent KD from koff/kon", "data": [{"substance": "globular region of C1q (gC1q) (domain or fragment)", "values": [{"measurement": "Kd", "result": 400, "unit": "nM"}, {"measurement": "koff", "result": 0.0072, "unit": "s⁻¹"}, {"measurement": "kon", "result": 18000, "unit": "M⁻¹ s⁻¹"}]}]}
